Measurements taken from patent publication US20200353030A1 (BAR ILAN UNIVERSITY, published 2020).

B1: hRobo2 receptor ectodomain D4-D5 N426M (residues 311-509 of human Robo2) (receptor)
chain: RAPPQFVVRPRDQIVAQGRTVTFPCETKGNPQPAVFWQKEGSQNLLFPNQPQQPNSRCSVSPTGDLTITNIQRSDAGYYICQALTVAGSILAKAQLEVTDVLTDRPPPIILQGPAMQTLAVDGTALLKCKATGDPLPVISWLKEGFTFPGRDPRATIQEQGTLQIKNLRISDTGTYTCVATSSSGETSWSAVLDVTESG
modifications: additional 655 Da glycosylation found by mass spectroscopy (site not stated)
notes: also called WT hRobo2 D4-5; hRobo2 D4-D5 fragment; not shown: N-terminal FLAG tag of the modified pFastBac (pK503-9) vector; C-terminal hexahistidine tag

Tests used:
[1] = molecular target: Robo2 of mouse dorsal root ganglion explants (mouse) (UniProt Q7TPD3); test: cell-based or functional assay
Sequence of Robo2 of mouse dorsal root ganglion explants (mouse) (Q7TPD3 22-1470): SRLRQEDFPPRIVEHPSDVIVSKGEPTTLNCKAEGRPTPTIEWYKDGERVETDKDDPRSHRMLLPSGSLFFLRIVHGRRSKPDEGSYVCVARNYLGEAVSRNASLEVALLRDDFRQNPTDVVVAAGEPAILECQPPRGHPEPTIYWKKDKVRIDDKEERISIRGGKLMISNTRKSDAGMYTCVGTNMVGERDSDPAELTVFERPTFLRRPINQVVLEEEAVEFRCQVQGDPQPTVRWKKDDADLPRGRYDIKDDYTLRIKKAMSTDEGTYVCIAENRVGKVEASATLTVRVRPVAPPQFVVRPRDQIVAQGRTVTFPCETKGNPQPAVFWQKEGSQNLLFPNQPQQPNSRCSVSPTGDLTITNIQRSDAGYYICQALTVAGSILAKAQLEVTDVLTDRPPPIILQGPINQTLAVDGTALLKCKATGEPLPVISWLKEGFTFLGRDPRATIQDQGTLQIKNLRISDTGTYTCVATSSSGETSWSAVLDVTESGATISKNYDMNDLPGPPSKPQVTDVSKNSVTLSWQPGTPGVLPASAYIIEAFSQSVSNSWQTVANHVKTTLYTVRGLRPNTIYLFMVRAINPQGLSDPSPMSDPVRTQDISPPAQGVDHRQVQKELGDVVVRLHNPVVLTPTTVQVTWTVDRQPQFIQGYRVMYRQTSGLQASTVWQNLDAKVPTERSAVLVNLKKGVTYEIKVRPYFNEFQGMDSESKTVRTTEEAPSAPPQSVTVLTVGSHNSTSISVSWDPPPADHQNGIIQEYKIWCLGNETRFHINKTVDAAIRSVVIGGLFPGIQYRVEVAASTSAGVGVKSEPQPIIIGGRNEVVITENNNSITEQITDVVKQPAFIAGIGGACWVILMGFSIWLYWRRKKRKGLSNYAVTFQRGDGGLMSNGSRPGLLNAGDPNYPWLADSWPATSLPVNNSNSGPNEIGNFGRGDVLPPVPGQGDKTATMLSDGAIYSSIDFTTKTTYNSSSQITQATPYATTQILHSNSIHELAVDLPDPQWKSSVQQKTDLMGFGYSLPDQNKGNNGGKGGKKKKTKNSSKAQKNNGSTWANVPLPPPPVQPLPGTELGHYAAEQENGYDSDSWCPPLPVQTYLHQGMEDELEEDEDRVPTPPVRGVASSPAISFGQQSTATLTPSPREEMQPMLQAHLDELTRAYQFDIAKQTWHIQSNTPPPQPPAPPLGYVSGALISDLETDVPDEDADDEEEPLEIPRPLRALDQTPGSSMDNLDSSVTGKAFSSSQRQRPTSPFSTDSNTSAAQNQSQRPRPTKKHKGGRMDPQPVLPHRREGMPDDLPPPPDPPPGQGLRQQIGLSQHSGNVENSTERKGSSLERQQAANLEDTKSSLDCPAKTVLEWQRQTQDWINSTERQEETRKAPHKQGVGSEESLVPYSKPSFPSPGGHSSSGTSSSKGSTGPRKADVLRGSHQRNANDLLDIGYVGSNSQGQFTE

[2] = molecular target: hRobo2 receptor ectodomain D4-D5 L394R mutant (human) (UniProt Q9HCK4); test: sedimentation equilibrium analytical ultracentrifugation, self-association; total molecular weight of the monomer in the same row 24720 Da; the KD column of this row prints 'monomer'
[3] = molecular target: hRobo2 receptor ectodomain D4-D5 F357R mutant (human) (UniProt Q9HCK4); test: sedimentation equilibrium analytical ultracentrifugation, self-association; total molecular weight of the monomer in the same row 24686 Da; the KD column of this row prints 'monomer'
[4] = molecular target: the molecule itself; test: SE-AUC, monomer-dimer fit, homodimerization in solution (10, 20 and 30 µM)
Description: All the sedimentation equilibrium experiments with hRobo2 receptor ectodomain D4-D5 constructs were performed using an XL-I analytical ultracentrifuge (Beckman-Coulter Inc.), with a UV-visible optics detection system, using an An60Ti rotor and 12-mm double sector centerpieces. Sedimentation curves were recorded and analyzed at 280 nm while spinning at 20° C. at 20,000 rpm in 10, 12, 14, and 20 hour time points, to assure that equilibrium was reached. Three concentrations (10, 20, and 30 μM) of WT hRobo2 receptor ectodomain D4-D5 (N426M) were measured. The F357R and L394R mutants were measured and analyzed in 20 μM. The molecular weight of WT hRobo2 receptor ectodomain D4-D5 fragment (N426M) was determined by mass spectroscopy using the Orbitrap Fusion Lumos with electron transfer dissociation (ETD), with both instrument and chromatography set up especially for the analysis of intact proteins. The recombinant protein includes an N′ terminal FLAG and C′ terminal 6XHis tags. […] The sedimentation coefficient distributions were calculated using SEDFIT and SEDPHAT (Gabrielson et al., 2007; Schuck et al., 2014).
The oligomeric state of hRobo2 receptor ectodomain D4-D5 in solution was determined by sedimentation equilibrium analytical ultracentrifugation (SE-AUC) (FIGS. 8A-8C). […]

[5] = molecular target: B1; test: apparent KD; ELISA binding assay, method of the fit not stated

Question: Which growth cone collapse of DRG explants 10 min after 5 nM SlitN2, without Fab [1] does the source give for “hSlitN2 (from UniProt O94813 31-1121) (ligand)” here?
Answer: The growth cone collapse of DRG explants 10 min after 5 nM SlitN2, without Fab was 60%.

Question: With “hRobo2 receptor ectodomain D4-D5 L394R mutant (from UniProt Q9HCK4 311-509)” as the molecule, how does the global distribution (Da) sedimentation equilibrium [2] read?
Answer: The global distribution (Da) sedimentation equilibrium was 24700 Da.

Question: “hRobo2 receptor ectodomain D4-D5 F357R mutant (from UniProt Q9HCK4 311-509)” was tested. Which global distribution (Da) sedimentation equilibrium [3] did it give?
Answer: Its global distribution (Da) sedimentation equilibrium is 24100 Da.

Question: For B1, which Kd [4] is on record?
Answer: The Kd was 16.9 µM.

B2: Fab antibody fragment AbD32836.1 (Fab, V domains shown)
VH: EVQLVESGGGLVKPGGSLRLSCAASGFTFSSYALSWVRQAPGKGLEWVGHIKSKTDGGATEYAAPVKGRFTISRDDSKNTLYLQMNSLKTEDTAVYYCARSYSEYIPLYAFAVWGQGTLVTVSS
VL: DIVLTQPPSVSGAPGQRVTISCSGSSSNIGSKYVSWYQQLPGTAPKLLIYYTSQRPSGVPDRFSGSKSGTSASLAITGLQAEDEADYYCYAWDSTSTSTVFGGGTKLTVLG
notes: HuCAL phage display Fab from BioRad AbD Serotec, raised against hRobo2 D4-5; also called Fab AbD32836.1; Fab #AbD32836.1
Question: For B2, which Kd [5] is on record?
Answer: The Kd was 0.18 µM.
